These results are taken from the nanobody polyreactivity screen of Harvey et al. (2022).

This data set is described as follows: yeast display, Sf9 membrane polyspecificity reagent, FACS + sequencing; frameworks hold sequencing errors. The gist of the method:
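Nanobodies came from a synthetic yeast display library in Saccharomyces cerevisiae BJ5465, induced with galactose for 36–48 hours and stained for 1 hour at 4 °C with 10% biotinylated, detergent-solubilized Sf9 membrane reagent. Cells were enriched on streptavidin microbeads and then FACS-sorted, with low and high (top ~1%) gates set on anti-HA fluorescence for expression and streptavidin fluorescence for reagent binding. Each polyreactivity label reflects the gate a clone came from. Genes were amplified by colony PCR, sequenced by MiSeq 2 × 250 and filtered by CDR length.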
Take “QVQLVESGGGLVQAGGSLRLSCAASGSIFPSYAMGWYRQAPGKERELVAAISSRGGSTYYADSVKGRFTISRDNAKNTVYLQMNSLKPEDTAVYYCAADWSYYRRHFDYWGQGTQVTVSS”: the “polyreactivity (PSR sort gate)” value is recorded as “high polyreactivity”.
As for “QVQLVESGGGLVQAGGSLRLSCAASGSIFPSYAMGWYRQAPGKERELVAAISTWNDGGTYYADSVKGRFTISRDNGKNTVYLQMNSLKPEDTAVYYCAADSPKYYYDYDYWGQGTQVTVSS”, the “polyreactivity (PSR sort gate)” value was “low polyreactivity”.
In the case of “QVQLVESGGGLVQAGGSLRLSCAASGSIFPTNAMGWYRQAPGKERELVAAITSGGGTNYADSVMGRFTISRDNAKNTVYLQMNSLKTEDTAVYYCAADRYVEYGYWGQGTQVTVSS”, the “polyreactivity (PSR sort gate)” value was “low polyreactivity”.
For the sequence “QVQLVESGGGLVQAGGSLRLSCAASGSIFPVYAMGWYRQAPGKERELVAAINSSGGTTYYADSVKGRFSNSRDNAKNTVYLQMNSLKPEDTAVYYCAAEICTSSYLAKTYDYWGQGTQVTVSS”, the “polyreactivity (PSR sort gate)” value was “low polyreactivity”.
“QVQLVESGGGLVQAGGSLRLSCAASGSIFPYNAMGWYRQAPGKEMELVATISSGGSTNYADSVKGRFTISRDNAKNTVYLQMNSLKPEDTAVYYCAADVIVFYYAPNYWGDIEYGYWGQGTQVTVSS”: the “polyreactivity (PSR sort gate)” value is recorded as “low polyreactivity”.
As for “QVQLVESGGGLVQAGGSLRLSCAASGSIFPYNAMGWYRQAPGKERELVAAISKRGGSTYYADSVKGRFTISRDNAKNTVYFQMNSLKPEDTAVYYCAARYPPYRSWYSYDYWGQGTQVTVSS”, the “polyreactivity (PSR sort gate)” value is listed as “low polyreactivity”.
“QVQLVESGGGLVQAGGSLRLSCAASGSIFPYNAMGWYRQAPGKERELVATINSRGGRTYYADSVKGRFTISRDNAKNTVYLQMNSLKPEDTAVYYCARYYSSALRYGYWGQGTQVTVSS”: the “polyreactivity (PSR sort gate)” value is recorded as “low polyreactivity”.
As to “QVQLVESGGGLVQAGGSLRLSCAASGSIFPYNAMGWYRQAPGKERELVATISSGGSTNYADSVKGRFTISRDNAKNTVYLQMNSLKPEDTAVYYCATDDFWNVKFYAYYPEFDYWGQGTQVTVSS”, the “polyreactivity (PSR sort gate)” value is “low polyreactivity”.
As to “QVQLVESGGGLVQAGGSLRLSCAASGSIFPYVNAMGWYRQAPGKERELVASIPGGGGTKYADSVKGRFTISRDNAKNTVYLQMNSLKPEDTAVYYCNATSGNPASTAWMNYWGQGTQVTVSS”, the “polyreactivity (PSR sort gate)” value is on record as “low polyreactivity”.
The result for “QVQLVESGGGLVQAGGSLRLSCAASGSIFPYYALGRYRQAPGKERELVADITSSGGSTYYADSVKGRFTISRDNAKNTVYLQMNSLKPEDTAVYYCAALYWFYVYPFTEYDYWGQGTQVTVSS” reads “low polyreactivity”; that for “QVQLVESGGGLVQAGGSLRLSCAASGSIFPYYAMGWYIQAPGKERELVAVITTSGGRTYYADSVKGRFTISRDNAKNTVYLQMNSLKPEDTAVYYCATDVRQGSGWRYYYWGQGTQVTVSS”, “high polyreactivity”.
Turning to “QVQLVESGGGLVQAGGSLRLSCAASGSIFPYYAMGWYRKAPGKERELVAAISSSGGSTTYADSVKGRFTISRDHAKNTVYLQMNSLKPEDTAVYYCAALTYRRSSGGFDYWGQGTQVTVSS”, the “polyreactivity (PSR sort gate)” value is “high polyreactivity”.
For “QVQLVESGGGLVQAGGSLRLSCAASGSIFPYYAMGWYRPAPGKERELVAVISRGGGRTYYADSVKGRFTISRDNAKITVYLQMNSLKPEDTAVYYCYAGYPYGGDYWGQGTQVTVSS”, the “polyreactivity (PSR sort gate)” value is on record as “high polyreactivity”.
Take “QVQLVESGGGLVQAGGSLRLSCAASGSIFPYYAMGWYRQAPGKERELVAAITGAGSTNYADSVKGRFTISRDNAKNTVYLQRNSLKPEDTAVYYCAADFGSPDKWRDWYDYWGQGTQVTVSS”: the “polyreactivity (PSR sort gate)” value was “low polyreactivity”.
Turning to “QVQLVESGGGLVQAGGSLRLSCAASGSIFPYYAMGWYRQAPGKERELVASISRSVGSTFYADSVKGRFTISRDNAKNTVYLQMNSLKPEDTAVYYCAVRYFAQFGDYDYWGQGTQVTVSS”, the “polyreactivity (PSR sort gate)” value was “high polyreactivity”.
“QVQLVESGGGLVQAGGSLRLSCAASGSIFPYYAMGWYRQAPGKERELVATITYRGGSTNYADSVKGRFTISRDNAKNTVYLQMNSLNPEDTAVYYCAAYGYVLASPYPYSFVKLGYWGQGTQVTVSS”: the “polyreactivity (PSR sort gate)” value is “low polyreactivity”.
In the case of “QVQLVESGGGLVQAGGSLRLSCAASGSIFPYYAMGWYRQATGKERELVATITSRGGSTYYADSVKGRFTISRDNAKNTVYLQMNSLIPEDTAVYNCAKEYRYYRRRYDYWGQGTQVTVSS”, the “polyreactivity (PSR sort gate)” value is “high polyreactivity”.
As to “QVQLVESGGGLVQAGGSLRLSCAASGSIFPYYTMGWYRQAPGKERELVAAITTSDSSTYYADSVKGRFTISRDNAKNTVYLQMNSLKPEDTAVYYCAARYSLYPYYAYDDAYRLYRLRGRDYWGQGTQVTVSS”, the “polyreactivity (PSR sort gate)” value was “low polyreactivity”.
The result for “QVQLVESGGGLVQAGGSLRLSCAASGSIFQAYAMGWYRQAPGKERELVAAITASGTRTYYADSVKGRFTISRDNAQNTVYLQMNSLKPEDTAVYYCAAGTYRWGFGVRSAMDYWGQGTQVTVSS” reads “high polyreactivity”; that for “QVQLVESGGGLVQAGGSLRLSCAASGSIFQAYAMGWYRQAPGKERELVASISQSGDSTYYADSVKGRFTISRDNAKNTVYLQMNSLKPEDTAVYYCAAVQYGHRRGRVSVRRRLDYWGQGTQVTVSS”, “low polyreactivity”; that for “QVQLVESGGGLVQAGGSLRLSCAASGSIFQENAMGWYRQAPGKERELVAAINTGSITSYADSVKGRFTISRDNAKNTVYLQMNSLKPEDTAVYYCAADSFSLYDSWGQGTQVTVSS”, “low polyreactivity”.
For the sequence “QVQLVESGGGLVQAGGSLRLSCAASGSIFQFYAMGWYRQAPGKERELVAVITTSGVSTYYADSVKGRFTISRDNAKNTVYLQMNSLKPEDTAVYYCAADDYYLAGDYWGQGTQVTVSS”, the “polyreactivity (PSR sort gate)” value is reported as “low polyreactivity”.
The result for “QVQLVESGGGLVQAGGSLRLSCAASGSIFQFYAMGWYRQAPGKERELVAVITTSGVSTYYADSVKGRFTISRDNAMNTVYLQMNSLKPEDTAVYFCAADDYYLAGDYWGQGTQVTVSS” reads “low polyreactivity”; that for “QVQLVESGGGLVQAGGSLRLSCAASGSIFQHNAMGWYRQAPGKERELVATISESGGSTYYADSVKGRFTISRDNAKNTVYLQMNSLKPEDTAVYYCNTDYDYGWWDLGEFDYWGQGTQVTVSS”, “low polyreactivity”; that for “QVQLVESGGGLVQAGGSLRLSCAASGSIFQHYSLGRSRQAPGKERELVAAISYDTTSTYYADSVKGRFTISRDNAKNNVYLQMNSLKPEDTAVYYCNTYPEVYGPFQYDYWGQGTQVTVSS”, “low polyreactivity”.
On to “QVQLVESGGGLVQAGGSLRLSCAASGSIFQIYAMGWYRQAPGKERELAAAINSGGITKYADSVKGRFTISRDNAKNTVYLQMNSLKPEDTAVYYCAKRYGWPYGRFDYWGQGTQVTVSS”, for which the “polyreactivity (PSR sort gate)” value is listed as “low polyreactivity”.
As to “QVQLVESGGGLVQAGGSLRLSCAASGSIFQRNTIGWYIQAPGKERELVAAISRSGGSTYYADSVKGLFTISRDNAKITVYLQMKSLKPEDTEVYYCAVSGGTSRRYYYWGQGTKVTVSS”, the “polyreactivity (PSR sort gate)” value is reported as “high polyreactivity”.
Consider “QVQLVESGGGLVQAGGSLRLSCAASGSIFQSYDMGWSRQAPGKERELVAAITRSGGRTYYAASVKGRFTISRDNAKNTVYLQMNSLKPEDTAVYYCAAFGWGYGYWGQGTQVTVSS”, for which the “polyreactivity (PSR sort gate)” value is listed as “high polyreactivity”.
On to “QVQLVESGGGLVQAGGSLRLSCAASGSIFQTYAMGWYRQAPGKERELVAAITSGGGSTYYADSVKGRFTISRDNAKNTVYLQMNSLKPEDTAVYYCNRLYRYLVWPAGEYDYWGQGTQVTVTS”, for which the “polyreactivity (PSR sort gate)” value is “high polyreactivity”.
The result for “QVQLVESGGGLVQAGGSLRLSCAASGSIFQVYAMGWYRQAPGKEREFVAAISYSGGGTYYADSVKGRFTISRDNAKNTVYLQMNSLKPEDTAVYYCAADVSGWEYDYWGQGTQVTVSS” reads “low polyreactivity”.
The result for “QVQLVESGGGLVQAGGSLRLSCAASGSIFQVYAMGWYRQAPGNESEFVADIDWSGESTYYADSVKGRFTISRDNAKNTVYLQMNSLKPEDTAVYYCAAEDGYVTWDRDYEYWGQGTQVTVSS” reads “low polyreactivity”; that for “QVQLVESGGGLVQAGGSLRLSCAASGSIFQWYAMGWYRQAPGKERELVAAISFNGGITYYADSVKGRFTISRDIAKNTVYLQMNSLKPEDTAVYYCATLPGWGYAAYEYWGQGTQVTVSS”, “low polyreactivity”; that for “QVQLVESGGGLVQAGGSLRLSCAASGSIFQWYAMGWYRQAPGKERELVAAITISGTRTYYADSVKGRFTISRDNAKNTVYLQMNSLKPEDTAVYYCAARYTPRRYYYWGQGTQVTVSS”, “high polyreactivity”.
With “QVQLVESGGGLVQAGGSLRLSCAASGSIFQYNAMGWYRQAPGKESELVAVISWSGDTYYADSVKGRFTISRDNAKNTVYLQMNSLKPEDTAVYYCATDVLAWAPNDYWGQGTQVTVSS”, the “polyreactivity (PSR sort gate)” value is “low polyreactivity”.
Turning to “QVQLVESGGGLVQAGGSLRLSCAASGSIFQYNTMGWYRQAPGKERELVAAINWSGVSTYYADSVKGRFTISRDNAKNTVYLQMNSLKPEDTAVYYCNARRYVAGSYIYERGYWGQGTQVTVSS”, the “polyreactivity (PSR sort gate)” value is given as “high polyreactivity”.
For “QVQLVESGGGLVQAGGSLRLSCAASGSIFRANVMGWYRQAPGKERELVASINSDDNTYYADSVKGRFTISRDNAKNTVYLQMKRLKPEDSAVYYCYSEWGLFYDWTVLHMYLDGYYYWGQGTEVTVSS”, the “polyreactivity (PSR sort gate)” value was “low polyreactivity”.
Take “QVQLVESGGGLVQAGGSLRLSCAASGSIFRAYAMGWYRQAPGKERELVATISGSGGSTDYADSVKGRFTISRDTAKNTVYLQMNSLKPEDTAVYYCARDDPASHKRYWHDYWGQGTQVTVSS”: the “polyreactivity (PSR sort gate)” value was “low polyreactivity”.
For the sequence “QVQLVESGGGLVQAGGSLRLSCAASGSIFRFNAMGWSRQAPGKERELVARITSGGSTNYADSVKGRFTISRDNAKNTVYLQMNSLKPEDTAVYYCAAVYLLRGRRVTSYPYGYWGQGTQVTVSS”, the “polyreactivity (PSR sort gate)” value is “high polyreactivity”.
For “QVQLVESGGGLVQAGGSLRLSCAASGSIFRGNAIGWYRQAPGKDRELVAAISWNGVSTYYADSVKGRFTISRDNAKHTVYLQMNSLKPEDTAVYYCPTVGLRRLFVKPGTLKDYWGQGTQVTVSS”, the “polyreactivity (PSR sort gate)” value is reported as “low polyreactivity”.
In the case of “QVQLVESGGGLVQAGGSLRLSCAASGSIFRGNAMGWYRQAPGKERELVAAISKSGGSTYYADSVKGRFTISRDNAKNTVYLQMNSLKPEDTAVYYCAARTTYLYGMYYWGQGTQVTVSS” it was “low polyreactivity”.
